According to patent publication US20110118131A1 (published 2011):
Residue numbers refer to the chain shown, from its start. Names may count otherwise. “And” between values parts separate entries of the source, which are not always exact repeats. Equal values may be shown once.

T1: Ep-CAM (UniProt P16422 24-265)
T1 chain: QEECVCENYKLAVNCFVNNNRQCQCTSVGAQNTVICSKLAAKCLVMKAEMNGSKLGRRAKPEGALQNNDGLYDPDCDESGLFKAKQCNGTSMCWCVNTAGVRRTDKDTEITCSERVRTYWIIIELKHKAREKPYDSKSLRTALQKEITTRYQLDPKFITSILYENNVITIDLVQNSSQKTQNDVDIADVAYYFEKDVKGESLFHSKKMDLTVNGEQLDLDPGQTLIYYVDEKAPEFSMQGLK

B1: modified ING-1 IgG with an A102F substitution (antibody, V domains shown)
VH: QIQLVQSGPELKKPGETVKISCKASGYTFTKYGMNWVKQAPGKGLKWMGWINTYTEEPTYGDDFKGRFAFSLETSASTANLQINNLKSEDTATYFCARFGSFVDYWGQGTSVTVSS
VL: QIVMTQAAFSNPVTLGTSGSISCRSSKSLLHSNGITYLYWYLQKPGQSPQLLIYQMSNLASGVPDRFSSSGSGTDFTLRISRVEAEDVGVYYCAQNLELPRTFGGGTKLEMKR
B2: modified ING-1 IgG with a 102G substitution (antibody, V domains shown)
VH: B1 VH with F102G
VL: B1 VL
B3: XPA23 (IL-1 antibody) (antibody, V domains shown)
VH: EVQLLESGGGLVQPGGSLRLSCAASGFTFSKYFMFWVRQAPGKGLEWVSVISPSGGMTRYADSVKGRFTISRDNSKNTLYLQMNSLRAEDTAVYYCARVGYGGNSDYWGQGTLVTVSS
VL: DIQMTQSPSSVSASVGDRLTIICRASQDINRWLAWYQQTPGNAPKLLIHSATSLQSGVPSRFSGSGSGTDFTLTINSLQPEDFATYYCQQADSFPLTFGGGTKVEIK
notes: also called cA5; C5A
B4: modified XPA23 Y208L mutant (antibody, V domains shown)
VH: B3 VH with Y101L
VL: B3 VL
B5: XPA23 heavy chain D106A (Fab, V domains shown)
VH: B3 VH with D106A
VL: B3 VL
notes: Fab, periplasmic extract; also called C5A D106A
B6: XPA23 heavy chain Y101G (Fab, V domains shown)
VH: B3 VH with Y101G
VL: B3 VL
notes: Fab, periplasmic extract; also called C5A Y101G
B7: XPA23 heavy chain M57P (Fab, V domains shown)
VH: B3 VH with M57P
VL: B3 VL
notes: Fab, periplasmic extract; also called C5A M57P
B8: XPA23 heavy chain Y32A (Fab, V domains shown)
VH: B3 VH with Y32A
VL: B3 VL
notes: Fab, periplasmic extract; also called C5A Y32A
B9: XPA23 heavy chain K31P (Fab, V domains shown)
VH: B3 VH with K31P
VL: B3 VL
notes: Fab, periplasmic extract; also called C5A K31P
B10: XPA23 heavy chain S52I (Fab, V domains shown)
VH: B3 VH with S52I
VL: B3 VL
notes: Fab, periplasmic extract; also called C5A S52I
B11: XPA23 heavy chain V99L (Fab, V domains shown)
VH: B3 VH with V99L
VL: B3 VL
notes: Fab, periplasmic extract; also called C5A V99L
B12: XPA23 heavy chain D106P (Fab, V domains shown)
VH: B3 VH with D106P
VL: B3 VL
notes: Fab, periplasmic extract; also called C5A D106P
B13: XPA23 heavy chain K31T (Fab, V domains shown)
VH: B3 VH with K31T
VL: B3 VL
notes: Fab, periplasmic extract; also called C5A K31T
B14: XPA23 heavy chain V99P (Fab, V domains shown)
VH: B3 VH with V99P
VL: B3 VL
notes: Fab, periplasmic extract; also called C5A V99P
B15: XPA23 heavy chain D106V (Fab, V domains shown)
VH: B3 VH with D106V
VL: B3 VL
notes: Fab, periplasmic extract; also called C5A D106V
B16: XPA23 heavy chain D106I (Fab, V domains shown)
VH: B3 VH with D106I
VL: B3 VL
notes: Fab, periplasmic extract; also called C5A D106I
B17: XPA23 heavy chain V50P (Fab, V domains shown)
VH: B3 VH with V50P
VL: B3 VL
notes: Fab, periplasmic extract; also called C5A V50P
B18: XPA23 heavy chain D106T (Fab, V domains shown)
VH: B3 VH with D106T
VL: B3 VL
notes: Fab, periplasmic extract; also called C5A D106T
B19: XPA23 heavy chain S30P (Fab, V domains shown)
VH: B3 VH with S30P
VL: B3 VL
notes: Fab, periplasmic extract; also called C5A S30P
B20: XPA23 heavy chain S30V (Fab, V domains shown)
VH: B3 VH with S30V
VL: B3 VL
notes: Fab, periplasmic extract; also called C5A S30V
B21: XPA23 heavy chain S105L (Fab, V domains shown)
VH: B3 VH with S105L
VL: B3 VL
notes: Fab, periplasmic extract; also called C5A S105L
B22: XPA23 heavy chain R59I (Fab, V domains shown)
VH: B3 VH with R59I
VL: B3 VL
notes: Fab, periplasmic extract; also called C5A R59I
B23: XPA23 heavy chain I51P (Fab, V domains shown)
VH: B3 VH with I51P
VL: B3 VL
notes: Fab, periplasmic extract; also called C5A I51P
B24: XPA23 heavy chain G100P (Fab, V domains shown)
VH: B3 VH with G100P
VL: B3 VL
notes: Fab, periplasmic extract; also called C5A G100P
B25: XPA23 heavy chain S52L (Fab, V domains shown)
VH: B3 VH with S52L
VL: B3 VL
notes: Fab, periplasmic extract; also called C5A S52L
B26: XPA23 heavy chain R59A (Fab, V domains shown)
VH: B3 VH with R59A
VL: B3 VL
notes: Fab, periplasmic extract; also called C5A R59A
B27: XPA23 heavy chain G102V (Fab, V domains shown)
VH: B3 VH with G102V
VL: B3 VL
notes: Fab, periplasmic extract; also called C5A G102V
B28: XPA23 heavy chain D106L (Fab, V domains shown)
VH: B3 VH with D106L
VL: B3 VL
notes: Fab, periplasmic extract; also called C5A D106L
B29: XPA23 heavy chain G102P (Fab, V domains shown)
VH: B3 VH with G102P
VL: B3 VL
notes: Fab, periplasmic extract; also called C5A G102P
B30: XPA23 heavy chain G102L (Fab, V domains shown)
VH: B3 VH with G102L
VL: B3 VL
notes: Fab, periplasmic extract; also called C5A G102L
B31: XPA23 heavy chain G102A (Fab, V domains shown)
VH: B3 VH with G102A
VL: B3 VL
notes: Fab, periplasmic extract; also called C5A G102A
B32: XPA23 heavy chain R59V (Fab, V domains shown)
VH: B3 VH with R59V
VL: B3 VL
notes: Fab, periplasmic extract; also called C5A R59V
B33: XPA23 heavy chain G100L (Fab, V domains shown)
VH: B3 VH with G100L
VL: B3 VL
notes: Fab, periplasmic extract; also called C5A G100L

Molecular target: T1, Ep-CAM
Assay: Biacore SPR; Fig. 15B

| Kd [nM] | Molecule |
| --- | --- |
| 0.9 | B1 |

Molecular target: T1, Ep-CAM
Assay: Biacore SPR; Fig. 15C

| Kd [nM] | Molecule |
| --- | --- |
| 0.6 | B2 |

The molecules below were run against IL-1β (UniProt P01584 117-269) (assay: Biacore kinetic titration, IL-1β amine coupled to CM5 chip, 25 C).
Method: In an exemplary method, an antigen such as IL-1β is amine coupled to a CM5 sensor chip. Each sample (e.g., from lowest to highest concentration) may be injected for 240 seconds at a flow rate of 30 µl/min at a selected temperature (e.g., 25° C.). Sample are allowed to dissociate for 30 seconds except the highest concentration which may be permitted 300 seconds to dissociate. The assay is run at 25° C.
Biaevaluation software (e.g., Biacore 2000 evaluation software) is used to calculate dissociation rates of individual samples and the relative amount of sample bound to each test surface. The data is fit to an appropriate kinetic model (e.g., the kinetic titration model).

| Kd [nM] | Molecule |
| --- | --- |
| 46 | B3 |
| 16.2 | B4 |

These molecules were tested against T2, IL-1β (UniProt P01584 117-269) (assay: Biacore, Fab periplasmic extract; -1 = no binding by the table's footnote).
T2 construct: Antigen of XPA23

| binding result | Molecule |
| --- | --- |
| no binding | B5 |
| no binding | B6 |
| no binding | B7 |
| no binding | B8 |
| no binding | B9 |
| no binding | B10 |
| no binding | B11 |
| no binding | B12 |
| no binding | B13 |
| no binding | B14 |
| no binding | B15 |
| no binding | B16 |
| no binding | B17 |
| no binding | B18 |
| no binding | B19 |
| no binding | B20 |
| no binding | B21 |
| no binding | B22 |
| no binding | B23 |
| no binding | B24 |
| no binding | B25 |
| no binding | B26 |
| no binding | B27 |
| no binding | B28 |
| no binding | B29 |
| no binding | B30 |
| no binding | B31 |
| no binding | B32 |
| no binding | B33 |

What follows are molecules tested against biotinylated Ep-Cam (UniProt P16422) (assay: DELFIA competition, negative control well, biotinylated Ep-Cam, plate-coated parental ING-1 IgG as competitor).

| Percentage of inhibition | Molecule |
| --- | --- |
| -0.4% and 0.1% and 0.3% | negative control (wells E12-H12) |
